The supplement of paper PMC12636428

System: Saccharomyces cerevisiae
Assay: transcriptional activation domain activity (GFP:mCherry ratio, weighted mean of sorted bins, harmonized to initial dataset scale) (arbitrary fluorescence ratio units); higher = stronger transcriptional activation
Conditions: beta-estradiol 1 µM; induction time 4 h
Method in brief: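 Barcoded tiles were sequenced after cells were sorted into 8 bins by GFP:mCherry ratio. Before sorting, cultures had been diluted 1:5 into SC with 1 uM beta-estradiol and held for 4 hours at 30 °C. The tiles were fused to an estradiol-inducible synthetic transcription factor and integrated at URA3 in yeast diploids carrying a GFP reporter. Activation activity is the read-weighted mean of bin median fluorescence, averaged over barcodes and linearly mapped onto the initial dataset scale, and tiles under 50 reads were left out.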

Sequence | transcriptional activation domain activity
VIIQLQKLFLVSISLKLVQRISSLNQLFKTSVASLPAIGNLFLLWATLFIFFA | 53000
VIITLICRYEMHSTRLRLRGMSILSFLVNYTGRSMCNIKTTGFLDMIFALRQV | 47100
VIIVLIFAVACHLAFGTSVVVFIWRTALLRDISKLSRTNIMPMCISQVVADVL | 42900
VILGYCSLFVWFAVCGFCFLCFCVFVFLCFLFFVFFWHSSLGYLAGLAIIITF | 18300
VILLPLSFSLWYCLLFAYGILVSLYLLTLKNPTEINFLGFYIWKYENAFWVLM | 60100
VILYLLMLIGNVTVVSWIVSLFFLSRKSYLKLGFKMVLVRKWYFKNVCQYVDY | 67400
VIMCTALGIKSVKFEFANLCLVSIEHIFALFFYPMAVIICPSFLLHIATFFYI | 83900
VIRGLEELVYLDIRLPFQVEFLNMNPLLLGPACILRSMTLVILSSDGCFPTSR | 54000
VISDSEDEKPPAKKAKTEEKAEKEEAKEDPEAKAKAVKEKEEAALKLATTRIL | 40700
VISTLYHGPQIWVPILVSTGLLAIFAEILPQYFIPRQAISWGYYCWPLIWGCM | 36700
VIVIVMLFFLFYFNRLLGFVISKIVSYWTWKLYSAHIEIESIKFALLGGRISF | 55200
VIYRIDKDELTTGMLLVRNNLVELMAASTGPAAHLRVLVVDLVAPSFRSIPRG | 44400
VIYSHRYVFHKKKGLRHIHVLNGWYVLSRIIAVYVLQDFLGEGSSVVVIAFLR | 58700
VIYTSFFLYIYTPFIPFFFLFFFFLLLIPTFYIYMKRVLYYGLILWWFIQYSL | 51700
VKAAAPKRGGRKKKVEAKAEAGDEVEAAVFEKKEVEEEEKEKGGEKEVKETVE | 9930
VKAVVICLLICETLQITFFFCATYWLLIDHFGDFNALVVITWHESVQLLAGYL | 45200
VKEGGKDLVQLPKSWVEIDGEILVRAVLLLLHPGATLYGPVPMKIARNWPFAS | 60700
VKEKTDQAKAEDRKRAEKRGEQYEDSSDEEKERRRKARQKAKQGGGTGAAKAP | 26200
VKFRFLTYSRWLVLILYVFSWSFTIISMLLVTTNNANFTSCFLSIMVCDIFYS | 71700
VKGAGKGKGKDDGKKNSMVLLLLCSLLSVNFMLGNYAPQLWILLLVPMSLAAP | 45000
VKGGGDSRKVKGAESGQSGSGSGKQSGSRRRAVSSSRTRGSKEPDASIKSNGT | 35100

Sequence | transcriptional activation domain activity
VKHLKLSRDKSSPTFKFDSLYREILSSHPELMFILTAMLLWPDLVSDYHILRV | 30200
VKHRVIHLLVVFVAFFFAVTPVYFDYLCCGSPLVLFSSTLGMIIHLILFFFCL | 49000
VKHTYLMVTILLLFIFITMCCIMDNVRCIVALNNPGLDLGPPNSVIGILINAC | 18100
VKKAAEDGEDEAEEKPAPKAKRGRKKAELDEDDEEEAQPAKKKAKKAAPKAAA | 21400
VKKHYKLYYLDPGRTREFIAVSWFEVDILLVRWCSTTEYYTMTVFMTSLKKLN | 50000
VKKKGGSGGIDAGDIWGCNRRGSNFVEVRSMLAKEGGRLLVNVLRDMIDGTVR | 65900
VKPASRASAKPPSTTGAKKPASRASSRKPASKVGKEDKENGDAAAASAAAPDT | 25100
VKPEAKAEHIKENTKPKPLGTKRANKAAEAPAPAAKKPVKKAAVPKKAAAAPA | 59600
VKPIPPRPSTGLRYRVETLIGITGYRMAKFRPSWSEVVLACLNVLWRPQFFFV | 55000
VKPRPLPLPVLIAKALREKGLVYFFRSVRVSGSGTAEVVRGKWYMNFLPTLAR | 73200
VKRVAFGCLSTILALYLVHKYTYEHPFILSDNRHYSFYVWKKIYRRHWMVRYC | 61000
VKVVRGTGKLIFLSRCIEPWLPKNNAYLLSLPWLDWKSLVLTVLYGIKGYCFL | 62600
VKWAKETRGEQRKRLHIVPVGIVYTNKSQYQSRVSSRVHICVHVEAFVQERTS | 52100
VLAGYVVHVFGGDYFHSFSMTFFTFIWTLLFMGYIFITRDYIPKCYFYWLHIA | 54600
VLAMVAQIRTGLWLLHYRDFMLRELCYDQDLYILQTALIILEPDLVFLLQFFE | 33500
VLCTCVPRQLVEPLVKLRKIHRRLAMTWIAALDYFASYRLVPFIRMIMELESV | 44700
VLDLVCIKFLSLFTFYIFLLLYLSIFQIICFFLFPFLFLFFPSCPLRRFLFSY | 47000
VLEQLNLINHFYQFSLKFFLDIFEYVLRQNPNLQNVTDHHARREILFNDIFLV | 33600
VLFAVAVYMNHVPTAILWMSCVSAKLFSFCSQTFFVIRVYFLPWRFDLVFIPL | 37600
VLFSQRRRWINSTVHNLLELVILPELCGFCCFSMRFFVFIDLLGTILTYLVVV | 61100
VLGAAKCIPFLRWPTLHLSILLSWWDADTLVRLLKALAELHLRSITITLKIGI | 55700

Sequence | transcriptional activation domain activity
VLGCAKIGVVLLSLWHMFHFAHYINVSPTEIFCISPVLGSWSWETLCFMMTVV | 49600
VLGELSRFAGGPEETPIHIGTLYYLNVHTAPPYFWQRCQALLYRNTLLLSWIA | 52200
VLGNLLCAILFRNELWMRFLYLVFIYGLRGVSWAPLSIKYAATSILQHVGGIH | 29200
VLGQISTVLIQYLFNPAYDLLSYCFNWYLDQCIVYLLLSIILSAPTIGAFVYV | 46400
VLGSEGSNLRCTRYLVVGGPPAMGREVQRFRECECTVMRMTVLIRGAVMWGCR | 57500
VLHESCGSPVFLLFSCFILLSLWRIVGRISLSILLVLRSLFCCYFPSLLFWLW | 36900
VLHVLILHLPCCPSPNFLLAPDTTLPLSTLLWYEFSRTLFPVLLFYLPAFLIS | 72100
VLICAHGQQQMGSGVFLGQDLLSRARMESIFCRSTVPVIVITTAYCSGLWAVP | 55900
VLKALWSFAYTFGLFIFCNGSIYYFVARIFGSYYRVLDSPIVGFRWSNIHLFL | 57100
VLLCQMEDAVLSSSFAIKANTAMSQNTAEEFFNISEEEALNQLLENNNFDAFW | 140000
VLLFLFVWRWGRRAFWQLRGRGIIGSVVELYVNIRRILYGYFLRAPGVRNKVQ | 44100
VLLHLNRYMSIFGNLQILILVGLTSCCRTSHIYHMVLLLVQQHTLHRRYVLHA | 69400
VLLILGLGNPLCSRPVKLFEWMIAALVFAVLICMTMIIVKVNVVWSQAFNGFV | 45600
VLLITLILSSRINITPVVHVNPSFSTVHLIIIPHFLCNIITLLIYFIVCWGST | 56800
VLLLKTLLSPVVVPDLDDHSLVLKQFKTFHWQRKNLTSVINILAQALYSLFAA | 27800
VLLLLYLAFRAQTIEISIPKAKFCCYDTRVRILVPSRGYRSTYMCRISLLLGC | 19900
VLLLVIFACAIVYLKSLVYSPSPFPTLIACYMSHSNRRYLSVMYGVVLVHQIT | 75600
VLLQNLCRMVITRLGDWTLFKAFVLCCCLYRLSFFHDLFLFLYTFSFPLLCFT | 57100
VLLVLPLFFSFSLYHPLRLHPFRLFFFFFFFFLCIFFYFSPFPSFSCHFLFSS | 59100
